According to article PMC3393671:

Legend:
[1] = target: ROP5 of T. gondii strain RH-YFP (isoforms not told apart) (UniProt F2YGR7); test: pull-down (quantitated Western blot); settings: 25 µg protein/100 µl 1:1 bead suspension; RH-YFP strain T. gondii lysates; 3E2 antibody (anti-ROP5); GST signal subtracted; parent: est. 100; read off a plot
GST-Irga6-D164A (mouse) = GST-Irga6-D164A (mouse) (UniProt Q9QZ85); test: pull-down; GST-IRG fusion (25 or 50 µg per 100 µl 1:1 bead suspension) on Glutathione Sepharose 4B; postnuclear NP-40 lysate of RH-YFP T. gondii; o/n at 4°C; with or without 1 mM GDP; Western blot with mAb 3E2 (ROP5) or anti-ROP18 antiserum; GST-loaded beads as control
Sequence of GST-Irga6-D164A (mouse) (Q9QZ85 1-411 D164A): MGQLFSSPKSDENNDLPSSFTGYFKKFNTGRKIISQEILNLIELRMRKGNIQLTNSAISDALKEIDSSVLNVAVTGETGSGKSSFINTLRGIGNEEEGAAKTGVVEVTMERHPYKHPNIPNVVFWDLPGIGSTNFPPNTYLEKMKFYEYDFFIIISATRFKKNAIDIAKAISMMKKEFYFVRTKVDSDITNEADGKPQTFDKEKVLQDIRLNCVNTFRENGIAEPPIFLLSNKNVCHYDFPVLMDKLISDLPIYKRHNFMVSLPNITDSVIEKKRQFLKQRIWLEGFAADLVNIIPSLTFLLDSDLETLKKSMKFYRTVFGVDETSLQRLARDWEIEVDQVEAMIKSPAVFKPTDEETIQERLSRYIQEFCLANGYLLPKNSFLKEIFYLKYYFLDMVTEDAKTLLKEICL

Sequence of GST-Irga6 (Q9QZ85 1-411, stated change not applied): as the sequence (Q9QZ85 1-411 D164A) above, with A164D counted along it
Sequence of ROP5 of T. gondii strain RH-YFP (isoforms not told apart) (from UniProt F2YGR7 25-549) (natural protein) (F2YGR7 25-549): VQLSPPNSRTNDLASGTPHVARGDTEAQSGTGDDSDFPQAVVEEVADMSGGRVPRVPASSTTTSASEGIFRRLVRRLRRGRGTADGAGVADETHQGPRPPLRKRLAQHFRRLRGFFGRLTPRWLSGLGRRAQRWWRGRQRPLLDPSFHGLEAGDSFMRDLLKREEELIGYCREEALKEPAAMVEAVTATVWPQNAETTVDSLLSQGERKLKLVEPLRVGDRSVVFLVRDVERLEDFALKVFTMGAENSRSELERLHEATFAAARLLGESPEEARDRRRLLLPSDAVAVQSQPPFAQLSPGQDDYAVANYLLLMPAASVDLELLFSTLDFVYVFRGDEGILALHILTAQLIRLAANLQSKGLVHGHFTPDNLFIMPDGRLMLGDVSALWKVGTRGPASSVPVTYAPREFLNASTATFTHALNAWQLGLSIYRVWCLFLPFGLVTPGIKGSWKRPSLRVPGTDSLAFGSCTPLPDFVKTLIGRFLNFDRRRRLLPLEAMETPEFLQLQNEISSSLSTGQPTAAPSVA
Sequence of ROP5 of T. gondii strain RH-YFP (isoforms not told apart) (UniProt F2YGR7) (F2YGR7 25-549): as above

Substance | percent of parent (% of wild-type intensity) [1] | percent of ROP5 binding blocked (against wt GST-Irga6) (GST-Irga6-D164A (mouse))
GST-Irga6 (from UniProt Q9QZ85) D206R | 68 | –
ROP5 of T. gondii strain RH-YFP (isoforms not told apart) (from UniProt F2YGR7 25-549) (natural protein) | – | > 95%
